Data published in patent US20250147035A1, “METHODS FOR DETECTION OF POST-TRANSLATIONAL MODIFICATIONS” (Quantum-Si Incorporated, priority 2023, published 2025).
Like-named read-outs stand apart in the source and are kept apart here. Primed or numbered codes have the meaning given here. Where no end group is shown, it is not given here. [ ]: non-standard residue; d: D form. pT = C[C@@H](OP(=O)(O)O)[C@H](N)C(=O)O; pS = N[C@@H](COP(=O)(O)O)C(=O)O; Biotin′ = not defined here

T1: …-Biotin
T1 sequence (peptide, C-terminal Biotin): SAKLDEESILKQ

T2: p…-Biotin
T2 sequence (peptide, phosphothreonine at 1; C-terminal Biotin): TAKLDEESILKQ

T3: pSAKLDEESILKQ-Biotin
T3 peptide: [pS]AKLDEESILKQ-{Biotin′}

T4: TAKLDEESILKQ-Biotin
T4 peptide: TAKLDEESILKQ-{Biotin′}

T5: pTAKLDEESILKQ-Biotin
T5 peptide: [pT]AKLDEESILKQ-{Biotin′}

B1: PM14 (Saccharomyces cerevisiae/RAD53) (other)
chain: MEDQDGKIQGFKIPAHAPIRYTQPKSIEAETREQKLLHSNNTENVKSSKKKGNGRFLTLKPLPDSIIQESLEIQQGVNPFFIGRSEDCNCKIEDNRLSRVHCFIFKKRHAVGKSMYESPAQGLDDIWYCHTGTNVSYLNNNRMIQGTKFLLQDGDEIKIIWDKNNKFVIGFKVEINDTTGLFNEGLGMLQEQRVVLKQTAEEKDLVKKLTQMMAAQRANQPSASSSSMSAKKPPVSDTNNNGNNSVLNDLVESPINANTGNILKRIHSVSLSQSQIDPSKKVKRAKLDQTSKGPENLQFS
B2: PM04 (Human/14-3-3 protein gamma) (other)
chain: MVDREQLVQKARLAEQAERYDDMAAAMKNVTELNEPLSNEERNLLSVAYKNVVGARRSSWRVISSIEQKTSADGNEKKIEMVRAYREKIEKELEAVCQDVLSLLDNYLIKNCSETQYESKVFYLKMKGDYYRYLAEVATGEKRATVVESSEKAYSEAHEISKEHMQPTHPIRLGLALNYSVFYYEIQNAPEQACHLAKTAFDDAIAELDTLNEDSYKDSTLIMQLLRDNLTLWTSDQQDDDGGEGNN
B3: PM23 (Human/Scp1) (other)
chain: MAFEELRVQAENARLDMHFKLKEDHEKIQHLQEEYKKEVNDKENQVSLLLIQRTEKENKMKDLTFLLEESRDKVNQLEDKTKLQDENVKELNKKKDHLTSELEDTKMSLQRSMNTQKALEEDLQIATKTIYQLTEEKEAQMEEFNKAKTDHSFMVTELKATTCTLEELLRTEQQRLVKNED
B4: PM22 (Schizosaccharomyces pombe/FCP1) (other)
chain: MKQKVLKGCRLLFSGVIPLGVDVLSSDIAKWAMSFGAEVVLDFSVPPTHLIAAKIRTEKVKKAVSMGNIKVVKLNWLTESLSQWKRLPESDYLL
B5: PM22: Schizosaccharomyces pombe/FCP1, SEQ ID NO: 22 (protein)
chain: MKQKVLKGCRLLFSGVIPLGVDVLSSDIAKWAMSFGAEVVLDFSVPPTHLIAAKIRTEKVKKAVSMGNIKVVKLNWLTESLSQWKRLPESDYLL
B6: PM13 (Saccharomyces cerevisiae/FHA1) (other)
chain: MENITQPTQQSTQATQRFLIEKFSQEQIGENIVCRVICTTGQIPIRDLSADISQVLKEKRSIKKVWTFGRNPACDYHLGNISRLSNKHFQILLGEDGNLLLNDISTNGTWLNGQKVEKNSNQLLSQGDEITVGVGVESDILSLVIFINDKFKQCLEQNKVDRIRSNLKNTSKIASPGLTSSTASSMVANKTGIFKDFSIIDEVVGQGAFATVKKAIERTTGKTFAVKIISKRKVIGNMDGVTRELEVLQKLNHPRIVRLKGFYEDTESYYMVMEFVSGG
B7: PM10 (Human/MCPH1) (other)
chain: MSGRGKKPTRTLVMTSMPSEKQNVVIQVVDKLKGFSIAPDVCETTTHVLSGKPLRTLNVLLGIARGCWVLSYDWVLWSLELGHWISEEPFELSHHFPAAPLCRSECHLSAGPYRGTLFADQPAMFVSPASSPPVAKLCELVHLCGGRVSQVPRQASIVIGPYSGKKKATVKYLSEKWVLDSITQHKVCAPENYLLSQ
B8: PM11 (Human/TOPBP1) (other)
chain: MVYNMVMSDVTISCTSLEKEKREEVHKYVQMMGGRVYRDLNVSVTHLIAGEVGSKKYLVAANLKKPILLPSWIKTLWEKSQEKKITRYTD
B9: PM02 (Human/14-3-3 protein theta) (other)
chain: MEKTELIQKAKLAEQAERYDDMATCMKAVTEQGAELSNEERNLLSVAYKNVVGGRRSAWRVISSIEQKTDTSDKKLQLIKDYREKVESELRSICTTVLELLDKYLIANATNPESKVFYLKMKGDYFRYLAEVACGDDRKQTIDNSQGAYQEAFDISKKEMQPTHPIRLGLALNFSVFYYEILNNPELACTLAKTAFDEAIAELDTLNEDSYKDSTLIMQLLRDNLTLWTSDSAGEECDAAEGAEN
B10: PM20 (Human/RB15B) (other)
chain: MQLGWNGLLVLKNSCFPTSMHILEGDQGVISSLLKDHTSGSKLTQLKIAQRLRLDQPKLDEVTRRIKQGSPNGYAVLLATQATPSGLGTEGMPTVEPGLQRRLLRNLVSYLKQKQAAGVISLPVGGSKGRDGTGMLYAFPPCDFSQQYLQSALRTLGKLEEEHMVIVIVRDTA
B11: PM03 (Human/14-3-3 protein eta) (other)
chain: MGDREQLLQRARLAEQAERYDDMASAMKAVTELNEPLSNEDRNLLSVAYKNVVGARRSSWRVISSIEQKTMADGNEKKLEKVKAYREKIEKELETVCNDVLSLLDKFLIKNCNDFQYESKVFYLKMKGDYYRYLAEVASGEKKNSVVEASEAAYKEAFEISKEQMQPTHPIRLGLALNFSVFYYEIQNAPEQACLLAKQAFDDAIAELDTLNEDSYKDSTLIMQLLRDNLTLWTSDQQDEEAGEGN
B12: PM19 (Human/RBM15) (other)
chain: MAPVASASPKLCLAWQGMLLLKNSNFPSNMHLLQGDLQVASSLLVEGSTGGKVAQLKITQRLRLDQPKLDEVTRRIKVAGPNGYAILLAVPGSSDSRSSSSSAASDTATSTQRPLRNLVSYLKQKQAAGVISLPVGGNKDKENTGVLHAFPPCEFSQQFLDSPAKALAKSEEDYLVMIIVRGFGFQI
B13: PM17 (Human/DIDO1) (other)
chain: MTLFLSRLSTIWKGFINMQSVAKFVTKAYPVSGCFDYLSEDLPDTIHIGGRIAPKTVWDYVGKLKSSVSKELCLIRFHPATEEEEVAYISLYSYFSSRGRFGVVANNNRHVKDLYLIPLSAQDPVPSKLLPFEGPGLESPRPNIILGLVICQKIKRPANS
B14: PM01 (Human/14-3-3 protein epsilon) (other)
chain: MDDREDLVYQAKLAEQAERYDEMVESMKKVAGMDVELTVEERNLLSVAYKNVIGARRASWRIISSIEQKEENKGGEDKLKMIREYRQMVETELKLICCDILDVLDKHLIPAANTGESKVFYYKMKGDYHRYLAEFATGNDRKEAAENSLVAYKAASDIAMTELPPTHPIRLGLALNFSVFYYEILNSPDRACRLAKAAFDDAIAELDTLSEESYKDSTLIMQLLRDNLTLWTSDMQGDGEEQNKEALQDVEDENQ
B15: PM21 (Human/PHF3) (other)
chain: MTFLARLNFIWKGFINMPSVAKFVTKAYPVSGSPEYLTEDLPDSIQVGGRISPQTVWDYVEKIKASGTKEICVVRFTPVTEEDQISYTLLFAYFSSRKRYGVAANNMKQVKDMYLIPLGATDKIPHPLVPFDGPGLELHRPNLLLGLIIRQKL

How the values were obtained:
p[…]-Biotin [1] = assay: Octet binding assay of PTM-specific affinity reagent candidates, pTQR peptide; conditions: fixed concentration of reagent
Experimental: This Example characterizes an exemplary phosphorylated threonine recognizer for use in methods of the disclosure. Octet binding assays at a fixed concentration of PTM-specific affinity reagent candidates were evaluated for binding with phospho-threonine, phospho-serine containing peptides (p[…]-Biotin; p[…]-Biotin; p[…]-Biotin), and control peptides without modifications ([…]-Biotin; […]-Biotin).

p[…]-Biotin [2] = assay: Octet binding assay of PTM-specific affinity reagent candidates, pTA peptide; conditions: fixed concentration of reagent
Source text: (§1) This Example characterizes an exemplary phosphorylated threonine recognizer for use in methods of the disclosure.

…-Biotin = molecular target: T1, …-Biotin; assay: Octet (BLI), fixed reagent concentration
p…-Biotin [3] = molecular target: T2, p…-Biotin; assay: Octet (BLI), fixed reagent concentration
SAKLDEESILKQ-Biotin = assay: Octet binding assay of PTM-specific affinity reagent candidates, SA control peptide; parameters: unit not given here; conditions: fixed concentration of reagent
Source text: as §1

pSAKLDEESILKQ-Biotin = molecular target: T3, pSAKLDEESILKQ-Biotin; assay: Octet (BLI), fixed reagent concentration;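 further: octet binding of candidate PTM-specific affinity reagents, each at one fixed concentration, to biotinylated phospho-Thr or phospho-Ser peptides, with unmodified biotinylated peptides serving as controls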
Experimental: (§2) Octet binding assays at a fixed concentration of PTM-specific affinity reagent candidates were evaluated for binding with phospho-threonine, phospho-serine containing peptides (p[sequence]-Biotin; p[sequence]-Biotin; p[sequence]-Biotin), and control peptides without modifications ([sequence]-Biotin; [sequence]-Biotin).

TAKLDEESILKQ-Biotin = molecular target: T4, TAKLDEESILKQ-Biotin; assay: Octet (BLI), fixed reagent concentration;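 further: octet binding of candidate PTM-specific affinity reagents, each at one fixed concentration, to biotinylated phospho-Thr or phospho-Ser peptides, with unmodified biotinylated peptides serving as controls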
Experimental: as §2

pTAKLDEESILKQ-Biotin = molecular target: T5, pTAKLDEESILKQ-Biotin; assay: Octet (BLI), fixed reagent concentration;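 further: octet binding of candidate PTM-specific affinity reagents, each at one fixed concentration, to biotinylated phospho-Thr or phospho-Ser peptides, with unmodified biotinylated peptides serving as controls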
Experimental: as §2

p…-Biotin [4] = assay: Octet (BLI), fixed reagent concentration; remark: listed apart in the source

Molecule | Octet binding assay response, pTQR (p[…]-Biotin [1]) | Octet binding assay response (…-Biotin) | Octet binding assay response (pSAKLDEESILKQ-Biotin) | Octet binding assay response (TAKLDEESILKQ-Biotin) | also measured
PM16: Human/PLK1, SEQ ID NO: 16 | 2.1 |  |  |  | Octet binding assay response, pTA (p[…]-Biotin [2]): 1.7
PM09 (Human/BRCA1 Tandem domain) (from UniProt P38398 1646-1859) |  | 0.1 |  |  | 
PM15 (Human/Pin1) (from UniProt Q13526 1-163) |  | 0.5 |  |  | 
PM02: Human/14-3-3 protein theta, SEQ ID NO: 2 | 0.5 |  |  |  | 
PM08 (Human/DLG4) (from UniProt P78352 426-724) |  | 0.3 |  |  | Octet binding assay response (p…-Biotin [3]): 1.2
PM15: Human/Pin1, SEQ ID NO: 15 | 7.4 |  |  |  | Octet binding assay response, SA (SAKLDEESILKQ-Biotin; SA = […]-Biotin (control)): 0.5
PM03: Human/14-3-3 protein eta, SEQ ID NO: 3 | 0.4 |  |  |  | Octet binding assay response, SA (SAKLDEESILKQ-Biotin; SA = […]-Biotin (control)): 0.3
PM08: Human/DLG4, SEQ ID NO: 8 | 1.2 |  |  |  | 
PM16 (Human/PLK1) (from UniProt P53350 326-603) |  | 0.5 |  |  | Octet binding assay response (p…-Biotin [3]; pTA phosphothreonine peptide): 1.7; Octet binding assay response (p…-Biotin [3]; pTQR phosphothreonine peptide): 2.1
B1 | 1.0 | 0.2 | 0.2 | 0.1 | Octet binding assay response, pTA (p[…]-Biotin [2]): 1.1; Octet binding assay response (p…-Biotin [3]; pTA phosphothreonine peptide): 1.1; Octet binding assay response (p…-Biotin [3]; pTQR phosphothreonine peptide): 1
B2 |  | 0.1 | 0.1 |  | 
B3 | 0.3 | 0.1 | 0.1 | 0.2 | Octet binding assay response (p…-Biotin [3]): 0.3; Octet binding assay response (pTAKLDEESILKQ-Biotin): 0.2
B4 |  | 0.2 | 0.1 |  | 
B5 |  |  |  |  | Octet binding assay response, SA (SAKLDEESILKQ-Biotin; SA = SAKLDEESILKQ-Biotin (control)): 0.2
B6 | 3.2 | 0.2 | 0.3 | 0.3 | Octet binding assay response, SA (SAKLDEESILKQ-Biotin; SA = […]-Biotin (control)): 0.2; Octet binding assay response, pTA (p[…]-Biotin [2]): 1.8; Octet binding assay response (p…-Biotin [3]; pTA phosphothreonine peptide): 1.8; Octet binding assay response (p…-Biotin [3]; pTQR phosphothreonine peptide): 3.2
B7 | 1.0 | 0.2 | 0.3 | 0.3 | Octet binding assay response, SA (SAKLDEESILKQ-Biotin; SA = […]-Biotin (control)): 0.2; Octet binding assay response (p…-Biotin [3]): 1; Octet binding assay response (pTAKLDEESILKQ-Biotin): 0.3
B8 |  | 0.2 | 0.2 |  | 
B9 |  | 0.3 | 0.3 | 0.3 | Octet binding assay response (pTAKLDEESILKQ-Biotin): 0.3; Octet binding assay response (p…-Biotin [4]): 0.5
B10 | 0.5 | 0.2 | 0.2 | 0.2 | Octet binding assay response (p…-Biotin [3]): 0.5; Octet binding assay response (pTAKLDEESILKQ-Biotin): 0.3
B11 |  | 0.3 | 0.2 | 0.2 | Octet binding assay response (pTAKLDEESILKQ-Biotin): 0.2; Octet binding assay response (p…-Biotin [4]): 0.4
B12 | 1.0 | 0.1 | 0.1 | 0.2 | Octet binding assay response (p…-Biotin [3]): 1; Octet binding assay response (pTAKLDEESILKQ-Biotin): 0.3
B13 |  | 0.2 | 0.2 |  | 
B14 |  | 0.2 | 0.2 |  | 
B15 | 0.5 | 0.1 | 0.2 | 0.2 | Octet binding assay response, SA (SAKLDEESILKQ-Biotin; SA = […]-Biotin (control)): 0.1; Octet binding assay response (p…-Biotin [3]): 0.5; Octet binding assay response (pTAKLDEESILKQ-Biotin): 0.3
